# According to publication doi:10.1101/388868, “Heterodimerization of UNC-13/RIM regulates synaptic vesicle release probability but not priming” (bioRxiv, 2018):
# T1: C. elegans UNC-13 long isoform residues 1-258 bearing the K49E mutation (C. elegans)
# T1 chain: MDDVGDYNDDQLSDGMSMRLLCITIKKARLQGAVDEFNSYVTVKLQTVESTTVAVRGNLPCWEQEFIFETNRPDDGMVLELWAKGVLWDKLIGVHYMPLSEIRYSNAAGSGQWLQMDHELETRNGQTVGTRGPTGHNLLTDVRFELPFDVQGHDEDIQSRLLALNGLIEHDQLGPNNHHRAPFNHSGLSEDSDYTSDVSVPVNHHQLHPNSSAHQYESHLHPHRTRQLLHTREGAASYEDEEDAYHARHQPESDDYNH
# Key:
# [1] = biological target: T1, C. elegans UNC-13 long isoform residues …; experiment: ITC
# [2] = biological target: the molecule itself; experiment: SEC; gel filtration of purified UNC-13L C2A, wild type or K49E; calibrated with alcohol dehydrogenase (150 kDa), bovine serum albumin (66 kDa) and carbonic anhydrase (29 kDa); void volume 10.78mL
Ka [1],Binder,stoichiometry N [2]
789000 M⁻¹,C. elegans UNC-10 residues 62-121 WT (domain or fragment) KLVGTQDDAICQICQKTKFADGIGHKCFYCQLRSCARCGGRAQSKNKAIWACSLCQKRQQ,
,"UNC-13L C2A domain, wild type (recombinant, gel filtration) (domain or fragment) MDDVGDYNDDQLSDGMSMRLLCITIKKARLQGAVDEFNSYVTVKLQTVKSTTVAVRGNLPCWEQEFIFETNRPDDGMVLELWAKGVLWDKLIGVHYMPLSEIRYSNAAGSGQWLQMDHELETRNGQTVGTRGPTGHNLLTDVRFELPFDVQGHDEDIQSRLLALNGLIEHDQLGPNNHHRAPFNHSGLSEDSDYTSDVSVPVNHHQLHPNSSAHQYESHLHPHRTRQLLHTREGAASYEDEEDAYHARHQPESDDYNH",2
